Results on 83 variants are retold here after the RNAGym collection of RNA variant scans (doi:10.1073/pnas.2313332121).

B1: TPR t1 (parent)
chain: GACCAAUCUGCCCUCAGAGCUCGAGAACAUCUUCGGAUGCAGAGGAGGCAGGCUUCGGUGGCGCGAUAGCGCCAACGUCCUCAACCUCCAAUGCAUCCCACCACAUGAUGAUGCCUGAAGAGCCUUGGUUUUUUG

This data set covers variants of B1. Nature of the data set: polymerase ribozyme fitness, log enrichment relative to wild type (log ratio); higher = more active; in vitro selection for triplet polymerase activity. Summed up: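 After PCR construction and transcription, each subunit's mutant library from a heterodimeric triplet polymerase ribozyme was annealed with a biotinylated primer, the partner subunit and triplets. Incubation was frozen, at −7 °C, and extended constructs were gel-excised, bound to streptavidin beads and amplified by RT-PCR, in one selection round done in triplicate. Fitness is the logarithm of a genotype's enrichment divided by that of the wild type, from inverse-variance-weighted replicate averages of Illumina-sequenced inputs and outputs. The base of the logarithm is 2, and genotypes needed ≥10 input reads and ≥1 read per output.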
In the case of A24G C70G C97A A121G, the “polymerase ribozyme fitness (log ratio)” value is -5.13.

For A26C C88U, the “polymerase ribozyme fitness (log ratio)” value was -5.08. As for A24G G69U A100U, the figure is -1.09; as for C22G C56G C86U C124U, -3.03; as for C22A A27G C85G A100C C101U G120C G127A, -6.82. As for A24U C94U A103U G110C G120C U131A, the figure is -5.54; as for G25C C97U C104A U109G, -6.31.

Consider C22G C34U G60U C94A C97U C98G G113U, for which the “polymerase ribozyme fitness (log ratio)” value is -6.85.

With U21G A41U G60C C80U U92C C97A A121U, the “polymerase ribozyme fitness (log ratio)” value is -8.22.

Turning to C22G A41U G93U, the “polymerase ribozyme fitness (log ratio)” value was -5.01. Turning to C22A G71U, the “polymerase ribozyme fitness (log ratio)” value is -5.61. As for A24U U32A G48C C70A A74U U81A A121G U125G, the figure is -7.22; as for C22G C56U A105U U112C, -2.05. As for C22G G71U, the figure is -3.63; as for A26C C73A U81C C88A A108G C114G A119U, -6.8; as for C22A C53A C94U G110U, -6.9.

C22G C80A C101U C124A: the “polymerase ribozyme fitness (log ratio)” value was -3.81. As for A26G C28A G113A, the figure is -4.3.

On to C22G C97A, for which the “polymerase ribozyme fitness (log ratio)” value is -5.26. As for A26U A41C, the figure is -4.03; as for U21G C53U C64U C79A, -3.11. As for A24G C40U C62G, the figure is -3.54; as for A24G C62U C104A C115A G135C, -4.17. As for C22U A121U, the figure is -2.45; as for G23A C73A A83G G120U, -6.38; as for G25C A119G, -6.74.

As for G25U C56U C123G, the “polymerase ribozyme fitness (log ratio)” value was -6.4. A24U A84U C114U G122A U132C: the “polymerase ribozyme fitness (log ratio)” value is -6.39.

In the case of A26U A37U G52U A90U U112C, the “polymerase ribozyme fitness (log ratio)” value was -6.53. U21G A37C G44U: the “polymerase ribozyme fitness (log ratio)” value was -3.59. As for A24U G69U C88A C114A, the figure is -6.87. U21G A46C C49G: the “polymerase ribozyme fitness (log ratio)” value is -3.41. As for U21C G39U C56U C101U U112A, the figure is -0.219; as for C22G A37C U92C G120C, -4.95; as for G25U C31G G42A A46U C70U G110U G128U, -6.32. As for G25A C31G U32G C40U C72U U106C A108U C124A, the figure is -7.62; as for A24U G39A, -7.92; as for U21C C22A A43C, -4.05. As for A24G C82G A84U U106C, the figure is -2.06; as for A26U C53U A74G G77U U125A, -4.77. For the variant A26U C123G, the “polymerase ribozyme fitness (log ratio)” value is -1.74. As for C22U G45A A83C, the figure is -5.99.

In the case of C22G C28U A37U G48A G71A G110C, the “polymerase ribozyme fitness (log ratio)” value is -5.6. As for G25U G35A A41U U112G, the figure is -7.04; as for G23U C124A, -4.31. As for G23C G69A G120A A121U C123U U129C, the figure is -6.52. As for C22A C31G G71U U92C G93A C114U, the figure is -6.77. For the variant A26G U38A G39U, the “polymerase ribozyme fitness (log ratio)” value was -4.5. Turning to U21G G61U G120U C123A, the “polymerase ribozyme fitness (log ratio)” value is -1.78. As for G25U C53A G69U G107A U116G C123U, the figure is -7.07. As for C22G U38G, the figure is -4.45.

On to A24U A27U C28U G36U A111U, for which the “polymerase ribozyme fitness (log ratio)” value is -5.92. As for A24U C40U, the figure is -6.96.

Regarding C22U C72A A100C, the “polymerase ribozyme fitness (log ratio)” value is -4.76. For the variant U21G C62A C124A U131A, the “polymerase ribozyme fitness (log ratio)” value was -1.77. As for A24U G61A, the “polymerase ribozyme fitness (log ratio)” value is -5.9.

With A26U C49U C98U, the “polymerase ribozyme fitness (log ratio)” value was -4.89.

In the case of A24U G117U, the “polymerase ribozyme fitness (log ratio)” value was -6.09.

As for U21G G47A C114A C123G U125A, the “polymerase ribozyme fitness (log ratio)” value was -1.52. As for C22G G58C, the figure is -2.94; as for C22U C115U, -4.01. As for A26G C94G A105C C123G, the figure is -5.27; as for C22U G39A, -4.66; as for A24U C56U, -4.09. As for A24U A46G G48A C70A A111G, the figure is -6.69.

A24G U38A U55A: the “polymerase ribozyme fitness (log ratio)” value is -2.85.

Consider A26U C70U U78C, for which the “polymerase ribozyme fitness (log ratio)” value was -4.92. With G25A G63C, the “polymerase ribozyme fitness (log ratio)” value is -6.68. As for A24U A119G, the figure is -6.17; as for A24G G47A, -2.63. As for A26G G42C U59C G113A, the figure is -5.32; as for C22G A90U U106A A111U, -3.25; as for A26U G47U C64A C85U G107C A108G G110C, -6.9. As for A24G G36U G93C U112A, the figure is -5.3; as for U21G C53U C123G, 0.377; as for C22G C80U, -4.33. For A24G G128A U130G, the “polymerase ribozyme fitness (log ratio)” value is -4.18. As for A24G C115A, the figure is -1.25; as for U21G C56U, -1.08; as for G23U A90U, -6.86. G25U A37U C40U G44U G47C C64A U106G U112A: the “polymerase ribozyme fitness (log ratio)” value was -6.12. As for C22A U81C, the figure is -5.67; as for G25C C34G C70A C104G G110U U116G, -8.24.
